Results as given in the supplement of paper PMC10266784.

B1: library; numbered along this chain (parent)
chain: MAAAAAAAAEQQSSNGPVKKSMREKAVERRSVNKEHNSNFKAGYIPIDEDRLHKTGLRGRKGNLAICVIILLFILAVINLIITLVIWAVIRIGPNGCDSMEFHESGLLRFKQVSDMGVIHPLYKSTVGGRRNENLVITGNNQPIVFQQGTTKLSVENNKTSITSDIGMQFFDPRTQNILFSTDYETHEFHLPSGVKSLNVQKASTERITSNATSDLNIKVDGRAIVRGNEGVFIMGKTIEFHMGGNMELKAENSIILNGSVMVSTTRLPSSSSGDQLGSGDWVRYKLCMCADGTLFKVQVTSQNMGCQISDNPCGNTH

Variants of: B1
Assay: SGCB cell-surface expression functional score (HA stain, bin4 vs bin1, normalised to synonymous) (log10 ratio); higher = more cell-surface SGCB (functional)
Summary of the method: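 Using lentivirus at MOI <0.1, HA-tagged, YFP-fused human beta-sarcoglycan codon-saturation libraries were put into HEK293 cells with stable alpha-, gamma- and delta-sarcoglycan expression, in duplicate transductions. YFP-positive cells were collected by sorting 72 hours later, grown 5–7 days, stained on ice with Alexa Fluor 647 anti-HA, fixed, sorted into four 5% intensity bins and amplicon-sequenced. The functional score takes the median, across codons and transductions, of the log ratio of highest-bin to lowest-bin variant frequency. Within each section, synonymous variants were scaled to mean 0, SD 0.5.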

SGCB cell-surface expression functional score (log10): each site, then its substitutions
H242: Q 0.68; Y 0.47; W 0.6; R 0.39; G 0.87; V 0.71; S 0.93; K 1.04; L 0.7; M 0.2; I 0.92; T 0.66; E 0.36; P -0.67; F 0.89; N 0.39
L257: R -1.52; T -0.91; H -0.81; S -1.19; C -0.27; I 0.12; D -0.5; N -0.61; F 0.54; Q -1.3; G -0.1; E -0.43; K -0.27; V 0.45; A -0.23; Y 0.3; W 0.82; M 0; P -0.89
G244: P 0.1; K 0.23; M 1.17; L 0.86; H 0.75; S 0.77; N 0.77; F 1; T 0.66; Q 0.86; D 0.99; I -0.24; R 0.41; E 0.47; Y -0.22; A 0.67; C 0.21; W 0.55; V 0.12
N258: L 0.61; H 0.33; K 0.55; I -0.1; F -0.09; M 0.62; E 0; Y 0.03; D 0.39; R 0.61; V 0.3; T -0.05; A 0.1; W 0; C 0.74; G 0.43; Q 0.63; P -1.25; S 0.66
E248: G 0.62; I 0.78; V 0.52; K 0.73; P 0.43; H 0.87; R 0.67; L 0.48; W 0.116; C -0.97; M 0; N 0.44; T 0.54; Q -0.13; F 0.95; A 0.29; D 0.58; S 0.4; Y 0.41
E252: N 1.08; W 0.117; I 1.01; Y 1.05; P 0.32; C 0.5; K 0.57; S 0.51; V 0.88; L 0.88; A 0.53; T 0.88; G 0.39; D -0.26; H 1.12; F 1.22; M 0.8; Q 0.64; R 0.34
N246: F -1.49; L 0.49; P 0.63; W -0.217; R 0.2; M 0.42; Q 0.45; S -0.19; C -0.02; T 0.94; D 0.51; K -0.01; Y 0.19; V 0.39; H 0.84; A 0.82; E -0.206; G 0.45; I 0.32
I255: P -0.82; L 0.57; R -0.91; Y -1.08; T -0.76; E -0.85; W -1.77; M 0.52; H -1.4; Q -0.37; G -1.03; C 0.39; V 0.07; F 0.37; A 0.2; D -0.53; S -0.08; N -1.5; K -0.13
G259: D -1.69; L -0.06; E -1.29; A 0.9; I 0.63; Q 0.7; F -0.46; N -0.51; H 0.33; P -0.37; R -0.34; M -1.05; C -0.44; K -1.06
S254: H 0.41; T 0.67; D -0.152; K 0.05; R 0.12; P -0.77; M 0.79; A 0.25; Y 0.7; N 0.66; E 1.37; F 0.96; W 0.38; L 0.74; C 0.55; G 0.08; I 0.12; V 0.02; Q 0.92
L249: H -1.14; Y 0.23; G 0.21; E -0.69; C 0.2; M -0.1; R -0.27; F 0.71; I 0.85; T 0; W 0.63; N -0.2; S 0.16; Q -0.07; K -1.29; D -1.06; P -0.41; A 0.55; V 0.75
I256: K 0.15; Q -0.26; L 0.37; M 0.29; D 0.02; G 0.26; T 0.37; V 0.31; S 0.62; P -0.12; C -0.43; Y 0.42; H 0.01; E 0.36; F 0.01; W -0.179; A -0.2; N 1.09; R 0.05
M247: K -1.56; P -1.08; G 0.38; W -1.52; T -0.51; D -1.1; L 0.8; Q -0.04; I 0.34; N -0.35; H 0.26; Y 1.22; S 0.26; V 0.47; A 0.65; C 0.91; R -0.83; E -0.44; F 1.03
K250: Q 0.65; M 0.98; F 1.23; S 0.33; C 0.5; I 1; E 0.06; D 0.83; A 0.91; W 0.02; Y 1.05; H 0.87; N 0.48; R 0.59; P -0.39; V 0.37; G 0.55; L 0.54; T 0.83
G245: W 0.92; P 0.4; R 0.49; K 0.91; Y 1.09; V -0.07; T 0.57; I 0.57; H 0.52; Q 0.99; A 0.6; C 0.61; S 0.78; L 0.83; M 1.44; F -0.16; N 0.59; D 0.77; E 1.16
M243: V 0.49; E 0.01; Y 0.13; C 0.71; L 0.43; G 0.64; N 1.08; W -0.253; Q 0.88; A 0.83; P 0.21; T 0.83; H 0.52; S 0.81; D -0.38; R -0.97; K -0.64; I 0.18; F 1.18
N253: Y 0.45; V 0.9; M -0.117; S 0.59; Q 1.07; E 0.76; C 0.55; R 0.29; G 0.43; K 0.46; W 0.29; L 0.96; D 0.58; I 0; H 0.8; A 0.49; P -0.52; F 0.83; T 0.39
A251: M 0; I -0.87; F -0.98; K -1.77; Q -2.02; S 0.32; T 0.52; L -1.06; C 0.59; W -1.85; G 0.05; R -1.16; H 0.44; Y -1.33; E -1.22; V 0.46; P 0.04; N 0.23; D -0.84
